Measurements taken from patent US6428967.

Assays:
[1] = biological target: wild type human LDL receptor on CHO cells (human) (UniProt P01130); assay: 125I-LDL surface binding on CHO cells expressing the wild type human LDL receptor, with or without Dab1
[2] = biological target: wild type human LDL receptor on CHO cells (human) (UniProt P01130); assay: cell-based or functional assay

Sequence of wild type human LDL receptor on CHO cells (human) (P01130 22-860): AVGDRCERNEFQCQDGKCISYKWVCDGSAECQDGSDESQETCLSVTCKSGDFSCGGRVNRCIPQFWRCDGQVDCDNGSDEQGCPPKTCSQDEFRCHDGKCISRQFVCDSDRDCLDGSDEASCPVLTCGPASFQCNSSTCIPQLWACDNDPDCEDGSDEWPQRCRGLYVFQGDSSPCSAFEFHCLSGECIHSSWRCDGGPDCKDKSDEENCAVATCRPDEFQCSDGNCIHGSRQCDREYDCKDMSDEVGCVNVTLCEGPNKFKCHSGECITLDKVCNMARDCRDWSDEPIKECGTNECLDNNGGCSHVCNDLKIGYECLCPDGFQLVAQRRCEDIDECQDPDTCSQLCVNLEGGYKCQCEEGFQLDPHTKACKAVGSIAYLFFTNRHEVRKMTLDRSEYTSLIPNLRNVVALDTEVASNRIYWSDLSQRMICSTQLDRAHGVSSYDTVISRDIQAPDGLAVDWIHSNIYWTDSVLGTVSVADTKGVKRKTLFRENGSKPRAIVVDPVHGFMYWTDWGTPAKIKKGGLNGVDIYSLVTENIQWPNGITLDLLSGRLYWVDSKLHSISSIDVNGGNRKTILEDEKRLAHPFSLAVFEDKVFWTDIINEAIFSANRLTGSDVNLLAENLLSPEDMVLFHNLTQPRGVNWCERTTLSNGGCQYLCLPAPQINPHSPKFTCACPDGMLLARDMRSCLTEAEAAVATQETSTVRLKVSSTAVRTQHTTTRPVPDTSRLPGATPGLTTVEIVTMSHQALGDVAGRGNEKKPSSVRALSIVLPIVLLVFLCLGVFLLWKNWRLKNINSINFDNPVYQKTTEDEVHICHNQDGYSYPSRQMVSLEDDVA

| Substance | fold of LDL bound on the cell surface, cells with Dab1 against cells without Dab1 [1] [times] | LDL bound on the cell surface (125I labeled human LDL) [2] [times] |
| --- | --- | --- |
| 125I labeled human LDL, P04114 28-4563 | 2 | – |
| Dab1 expressed in CHO cells from pcDNA3.1/ZEO DAB555 (from UniProt P97318 1-555) | – | 2 |
